From publication PMC9303355 (Diabetes, Obesity & Metabolism, 2022)

Tests used:
Assay type in all cases: in vivo, healthy subjects (human)
[1] = Pharmacokinetics of plasma insulin after a single subcutaneous dose; settings: healthy subjects, single 0.3 IU/kg s.c., PP population, median
[2] = tested on: blood glucose (glucose infusion rate); assay: Automated euglycaemic glucose clamp; settings: healthy subjects; single 0.3 IU/kg s.c.; PP population; median, N=39/38
Safety assessments = settings: single 0.3 IU/kg s.c.

## Humulin‐R: US‐approved reference regular recombinant human insulin product (Eli Lilly and Company)
[1]; N=40/41
  λz (terminal elimination rate constant of insulin): 0.5373 h⁻¹
[1]; N=41
  t50%‐ins(late): 6.23 h
[2]
  t50%‐GIR(early): 1.33 h
  t50%‐GIR(late): 7.03 h
  tGIR.max (time to maximum glucose infusion rate): 4.15 h
Safety assessments; healthy subjects
  tolerability: generally well tolerated
Safety assessments; safety analysis set
  headache (number of events): eight
  injection‐site reactions (number of AEs): four
  subjects with headache: eight
  subjects with injection‐site reactions: three
